Values quoted from earlier work as cited in publication PMC8836397.

Experiments:
[1] = biological target: Leu-enkephalin (Homo sapiens) (UniProt P01210)
Chain of UniProt P01210 (P01210 whole entry, looked up): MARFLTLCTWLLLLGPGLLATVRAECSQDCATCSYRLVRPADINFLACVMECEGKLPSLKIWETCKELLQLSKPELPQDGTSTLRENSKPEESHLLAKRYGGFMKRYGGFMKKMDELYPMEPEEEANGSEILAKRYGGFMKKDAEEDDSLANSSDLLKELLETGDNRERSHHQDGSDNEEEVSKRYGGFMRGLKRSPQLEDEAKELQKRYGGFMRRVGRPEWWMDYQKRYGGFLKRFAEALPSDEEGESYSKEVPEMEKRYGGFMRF

Row | Substance | Ki (WVYPW (tynorphin analog)) | Ki (IVYPW (tynorphin analog)) | Kd [1]
1 | DPP III (from UniProt Q9NY33) | 126 nM | 100 nM | –
2 | DPP III (inactive variant) (from UniProt Q9NY33) | – | – | 3600 nM
